Test results reported in patent US8313778B2, “Drug-delivery systems” (Evonik Roehm GmbH, priority 2005, dated 2012).
carboxyfluorescein = carboxyfluorescein label (N-terminal); fluorescein = fluorescein label

Assays:
HeLa cells [1] = test: Cytotoxicity of hLF peptide, MTT test; assay type: cell-based, human; settings: for ability of the cells to survive (MTT test): HeLa cells
Procedure: However, relatively short incubation times of less than one hour were used when observing peptide uptake in live cells. In addition, therefore, the effect of longer incubation times and higher concentrations of the peptides on the ability of the cells to survive was tested. HeLa cells were for this purpose incubated with hLF peptide at a concentration of 1.25 μM to 160 μm for 0.5 or 6 h. The vitality of the cells was then determined with an MTT test.

HeLa cells [2] = assay type: cell-based, human; settings: flow cytometry (FIG. 5)
Procedure: Cells and reagents: The human HeLa carcinoma cells used are derived from the American Type Culture Collection (Manassas, Va., USA). HeLa cells were cultured in RPMI 1640 medium with stabilized glutamine and 2.0 g/l NaHCO3 (PAN Biotech, Aidenbach, Germany) and with 10% foetal calf serum (PAN Biotech). Chlorbromazine was purchased from (Calbiochem (Bad Soden, Germany), 5-(N-ethyl-N-isopropyl)amiloride (EIPA), methyl-β-cyclodextrin (MβCD) and MTT [3-(4,5-dimethylthiazol-2-yl)-2,5-diphenyltetrazolium bromide] was purchased from Sigma (Deisenhofen, Germany).
Peptides: The peptides used were synthesized by EMC microcollections (Tübingen, Germany). The purity of all the peptides was checked by analytical HPLC. […]
Stock solution of the peptides: The peptides were taken up in DMSO to result in a 10 mM solution. […] This took place by UV/VIS spectrometry with a 1:100 dilution of the stock solution with 0.1M Tris/HCl buffer (pH 8.8), the absorption at 492 nm was measured, and carboxyfluorescein was assumed to have an extinction coefficient of 75 000 l/(mol·cm). […]
The peptides derived from human or bovine lactoferrin were prepared by solid-phase peptide synthesis. […] In order to determine whether the derived lactoferrin peptides have an activity as cell-penetrating peptides, the cell-associated fluorescence of the HeLa cells incubated with bLF peptides or hLF peptides was determined by flow cytometry. […]

| Substance | cytotoxic effects (MTT test) (HeLa cells [1]; HeLa cells incubated for only 30 min, up to a concentration of 40 μM (FIG. 6)) | ability of the cells to survive (MTT test) (HeLa cells [1]; concentrations above 40 μM (FIG. 6)) | ability of the cells to survive (MTT test) (HeLa cells [1]; peptide concentration of 5 μM, after 6 h (FIG. 6)) | uptake relative to the amount taken up of hLF peptide (HeLa cells [2]) |
| --- | --- | --- | --- | --- |
| Fluo-KCFQWQRNMRKVRGPPVSCIKR-CONH2 (carboxyfluorescein-KCFQWQRNMRKVRGPPVSCIKR-NH2; cysteine pairing not given here; listed as Homo sapiens) [hLF peptide] | No cytotoxic effects | killed | slightly reduced | – |
| Fluo-FQWQRNMRKVRGPPVS-CONH2 (fluorescein-FQWQRNMRKVRGPPVS-NH2; listed as Homo sapiens) [LF1] | – | – | – | one-tenth |
| Fluo-FQWQRNMRKVR-CONH2 (fluorescein-FQWQRNMRKVR-NH2; listed as Homo sapiens) [LF2] | – | – | – | one-tenth |
